# Assay results reported in patent US20190002515A1 (published 2019).
# B1: TCR specific for GAGE-1 of SEQ ID NOs 7 and 8 (TCR, V domains shown)
# Valpha: EDKVVQSPLSLVVHEGDTVTLNCSYEVTNFRSLLWYKQEKKAPTFLFMLTSSGIEKKSGRLSSILDKKELSSILNITATQTGDSAIYLCAERTQGGSEKLVFGKGTKLTVNP
# Vbeta: DAGITQSPRHKVTETGTPVTLRCHQTENHRYMYWYRQDPGHGLRLIHYSYGVKDTDKGEVSDGYSVSRSKTEDFLLTLESATSSQTSVYFCATQRNTEAFFGQGTRLTVV
# Biological target: T1, GAGE-1 peptide on HLA-DRA*01:01 / HLA-DRB5*01:01 (human)
# T1 peptide: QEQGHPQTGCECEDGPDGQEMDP
# Assay: cytokine release
binder,measurement,value
B1,binding result,recognises
